Results from patent publication US7507716B2, “Method for treating pain with prolactin antagonists” (Board of Regents, The University of Texas System, priority 2005, dated 2009).

How the values were obtained:
[1] = test system: TG neurons; assay: Patch clamp, capsaicin-induced currents (Icap); type: cell-based, rat
Experimental: Since application of PRL rapidly increases capsaicin-induced calcium accumulation and neuropeptide release, the role of PRL in modulating capsaicin-induced currents (Icap) was examined. TRPV1 desensitization of cultured TG neurons was induced through the repeated application of 100 nM capsaicin to the cultures (Vellani et al., 2001; Bonnington and McNaughton, 2003). The sub-maximal concentration of capsaicin used was effective in inducing desensitization and permitted the investigation PRL-evoked re-sensitization or further sensitization of TRPV1. […] Data are presented as mean±SEM of PRL-treated ΔIcap (3rd Icap-2^ndIcap) normalized to vehicle treated ΔIcap, (n=8-12/group, *=p<0.05 and **=p<0.01; two-way ANOVA). […] Acutely dissociated TG neurons from female rats were locally pretreated with vehicle or PRL (40 nM) for 60 sec, washed for 60 sec and subjected to a single capsaicin pulse (40 sec, 0.1 nM-5 μM). Data are shown as mean±SEM (n=12-20/group, *=p<0.05 and ***=p<0.001 vehicle vs. PRL; two-way ANOVA). FIGS. 5C and 5D depict representative traces of Icap recordings from intact (FIG. 5C) and OVX (FIG. 5D) female rat TG neurons. Concentration of applied CAP and PRL are indicated. The duration CAP and PRL treatment was 30 sec and 60 sec, respectively. The magnitude of the second capsaicin-evoked inward currents (Icap) peak was subtracted from the third Icap peak to calculate the difference (ΔIcap). Data were normalized to the vehicle treated ΔIcap.
(§1) Patch Clamp Electrophysiology: All recordings were performed in whole-cell voltage-clamp (Vh=−60 mV) configuration. Recordings were acquired at 22-24° C. from the somata of neurons (15-45 pF) using an Axopatch200B amplifier and pCLAMP9.0 software (Axon Instruments, Union City, Calif.). Data were filtered at 0.5 kHz and sampled at 2 kHz. Borosilicate pipettes (Sutter, Novato, Calif.) were polished to resistances of 3-5 MΩ in pipette solution. Access resistance was compensated (40-80%) to 7-10 MΩ values when appropriate. Cell diameters were calculated using d=√[100*Cm/π], where d (μm) is cell diameter and Cm (pF) is membrane capacitance.
Standard external solution (SES) had the composition as described above. […] Drugs were applied using a fast, computer controlled pressure-driven 8-channel system (ValveLink8; AutoMate Scientific, San Francisco, Calif.).
FIG. 11B summarizes the effect of adding rhPRL on Icap of cultured TG neurons from male, female and OVX female rats. Number of recorded neurons and neurons in which effects were observed are indicated above the bars. The recordings were performed in whole-cell voltage clamp c(Vh=−60 mV) configuration. Solutions are SES and SIS.

[2] = test system: TG neurons; assay: Patch clamp, heat-evoked currents (Iheat); type: cell-based, rat; conditions: neurons from intact female rats
Experimental: TRPV1 is known to be activated by noxious heat (>42° C). Furthermore, this effect is itself sensitized by hyperalgesic agents such as bradykinin (Cesare et al., 1999) and NGF (Chuang et al., 2001; Zhu et al., 2004). To determine whether PRL sensitizes heat-evoked currents (Iheat), the effect that pre-treatment of intact female rat TG neurons with PRL has on Iheat was examined. […] Data are presented as mean±SEM (n=8-12/group, ***=p<0.001 versus vehicle control; two-tailed unpaired T test). […] (FIG. 6B) and 48° C. (FIG. 6C). Data are presented as mean±SEM (n=8-12/group, ***=p<0.001 versus vehicle control; two-tailed unpaired T test). FIG. 6D and FIG. 6E are representative traces of Iheat recordings from TG neurons pretreated with PRL or vehicle (6D); and plotting Iheat as a function of temperature (FIG. 6E). PRL lowered the activation temperature threshold and increased the magnitude of Iheat. In addition, the magnitude of the Iheat evoked at 43° C. (I43) and 48° C. (I48) points in neurons pretreated with prolactin or vehicle was measured.
as §1
For the recording of heat-activated currents (Iheat), SES was heated on-line by a Peltier device (Warner Instruments, Hamden, Conn.) and locally delivered via a glass tube positioned in close proximity to the neuron. Temperature values were acquired with a thermister probe (0.5-1.5 mm size; Harvard Apparatus, Holliston, Mass.) situated at the orifice of the glass tube for local delivery of heated SES. […]

B1: PRL: Ovine PRL [oPRL-21, BIO] provided by NHPP; prolactin polypeptide hormone (protein, UniProt P01240 31-229, looked up)
Prolactin: TPVCPNGPGNCQVSLRDLFDRAVMVSHYIHNLSSEMFNEFDKRYAQGKGFITMALNSCHTSSLPTPEDKEQAQQTHHEVLMSLILGLLRSWNDPLYHLVTEVRGMKGVPDAILSRAIEIEEENKRLLEGMEMIFGQVIPGAKETEPYPVWSGLPSLQTKDEDARHSAFYNLLHCLRRDSSKIDTYLKLLNCRIIYNNNC
Question: For B1, which “effect of PRL pretreatment on capsaicin potency (Icap)” value ([1]; PRL 40 nM 60 sec, single capsaicin pulse 0.1 nM-5 μM, female rat TG neurons) is on record?
Answer: Its value is “increased capsaicin potency”.

Question: What about the “concentration of maximal potentiation of Icap” value ([1]; TRPV1-desensitized TG neurons from naive female rats, 100 nM capsaicin) of the same molecule?
Answer: Its value is 40 nM.

Question: And the EC50 ([1]; TRPV1-desensitized TG neurons from naive female rats, 100 nM capsaicin, read-out: EC50 of Icap sensitization)?
Answer: The EC50 was 0.27 nM.

Question: And the “effect on Icap” value ([1]; rat OVX TG neurons)?
Answer: Its value is “had no observed effect”.

Question: What about the “threshold temperature for Iheat activation” value ([2]; PRL 40 nM for 5 min, n=16, vehicle 41.9±0.67) of the same molecule?
Answer: The value was 36.8±0.58 °C.

Question: What about the “inward currents evoked by 43° C. (I43)” value ([2]; PRL pretreatment) of the same molecule?
Answer: The value was “significantly increased”.

Question: And the “inward currents evoked by 48° C. (I48)” value ([2]; PRL pretreatment)?
Answer: Its value is “significantly increased”.
